Experimental findings from patent publication US20240043542A1 (published 2024) are described below.

First the molecules themselves.
T1: human B7-H4 on the cell surface (human, UniProt Q7Z7D3 25-282)
T1 construct: full-length human B7-H4 on transfected HEK293T cells or endogenous on SK-BR-3 cells; also called SK-BR-3 (endogenous human B7-H4)
T1 sequence: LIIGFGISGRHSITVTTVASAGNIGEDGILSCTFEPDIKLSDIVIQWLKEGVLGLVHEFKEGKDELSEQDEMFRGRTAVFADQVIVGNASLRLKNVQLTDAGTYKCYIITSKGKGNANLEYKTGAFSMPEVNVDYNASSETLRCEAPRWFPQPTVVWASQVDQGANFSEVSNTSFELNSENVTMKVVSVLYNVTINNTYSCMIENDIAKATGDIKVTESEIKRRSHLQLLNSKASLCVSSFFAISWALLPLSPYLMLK

T2: cynomolgus monkey B7-H4 on the cell surface (cynomolgus monkey, UniProt Q7Z7D3 25-282 (human entry))
T2 construct: full-length, on transfected HEK293T cells
T2 chain: T1 sequence with L53I, F242L, S252A

T3: mouse B7-H4 on the cell surface (mouse, UniProt Q7TSP5 25-257)
T3 construct: full-length, on transfected HEK293T cells
T3 sequence: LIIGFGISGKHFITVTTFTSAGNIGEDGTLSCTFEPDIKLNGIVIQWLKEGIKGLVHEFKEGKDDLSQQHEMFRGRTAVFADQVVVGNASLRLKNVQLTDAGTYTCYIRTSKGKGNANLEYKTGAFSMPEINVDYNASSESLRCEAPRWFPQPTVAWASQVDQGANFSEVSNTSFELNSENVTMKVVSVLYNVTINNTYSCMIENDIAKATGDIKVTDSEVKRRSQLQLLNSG

T4: rat B7-H4 on the cell surface (rat, UniProt Q501W4 25-257)
T4 construct: full-length, on transfected HEK293T cells
T4 sequence: T3 sequence with R109H, Q228E

T5: mouse B7-H4 (recombinant, BLI) (mouse, UniProt Q7TSP5 29-256, limits assumed)
T5 construct: also called murine B7-H4
T5 sequence: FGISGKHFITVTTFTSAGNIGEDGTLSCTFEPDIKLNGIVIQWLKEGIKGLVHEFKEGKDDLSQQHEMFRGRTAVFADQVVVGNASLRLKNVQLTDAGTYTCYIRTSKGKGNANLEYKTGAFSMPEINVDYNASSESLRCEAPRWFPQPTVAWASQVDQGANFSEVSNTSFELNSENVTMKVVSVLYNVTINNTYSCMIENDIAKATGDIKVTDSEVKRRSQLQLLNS

T6: cynomolgus monkey B7-H4 (recombinant, BLI) (cynomolgus monkey, UniProt Q7Z7D3 25-259 (human entry))
T6 construct: also called Cynomolgus B7-H4
T6 sequence: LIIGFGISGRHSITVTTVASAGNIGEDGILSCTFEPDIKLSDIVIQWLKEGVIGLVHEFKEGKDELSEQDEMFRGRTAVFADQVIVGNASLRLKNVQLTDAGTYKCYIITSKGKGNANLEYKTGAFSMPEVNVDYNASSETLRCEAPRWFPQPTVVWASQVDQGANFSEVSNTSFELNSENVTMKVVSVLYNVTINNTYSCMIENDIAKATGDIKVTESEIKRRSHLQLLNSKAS

B1: B7-H4 antibody 15472 (antibody, human IgG1, kappa, V domains shown)
VH: EVQLLESGGGLVQPGGSLRLSCAASGFTFSSYAMSWVRQAPGKGLEWVSTISGSGGSTYYADSVKGRFTISRDNSKNTLYLQMNSLRAEDTAVYYCARGAGHYDLVGRYWGQGTLVTVSS
VL: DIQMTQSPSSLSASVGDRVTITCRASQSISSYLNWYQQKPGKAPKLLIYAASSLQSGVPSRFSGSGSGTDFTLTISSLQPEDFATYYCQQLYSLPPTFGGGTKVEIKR
notes: human IgG1/kappa
B2: B7-H4 antibody 20500 (antibody, human IgG1, kappa, V domains shown)
VH: QLQLQESGPGLVKPSETLSLTCTVSGGSIKSGSHYWGWIRQPPGKGLEWIGNIYYSGSTYYNPSLRSRVTISVDTSKNQFSLKLSSVTAADTAVYYCAREGSYPNWFDPWGQGTLVTVSS
VL: EIVMTQSPATLSVSPGERATLSCRASQSVSSNLAWYQQKPGQAPRLLIYGASTRATGIPARFSGSGSGTEFTLTISSLQSEDFAVYYCQQYHSFPFTFGGGTKVEIKR
notes: human IgG1/kappa
B3: B7-H4 antibody 20502.1 (antibody, human IgG1, kappa, V domains shown)
VH: B2 VH with H34Y, R66K, W106Q, T114I
VL: B2 VL
notes: human IgG1/kappa
B4: B7-H4 antibody 20501 (antibody, human IgG1, kappa, V domains shown)
VH: B2 VH with R66K, F107L
VL: B2 VL
notes: human IgG1/kappa
B5: B7-H4 antibody 15461 (antibody, human IgG1, kappa, V domains shown)
VH: B2 VH with K30S, G32S, H34Y, R66K
VL: B2 VL
notes: human IgG1/kappa
B6: B7-H4 antibody 20496 (antibody, human IgG1, kappa, V domains shown)
VH: QLQLQESGPGLVKPSETLSLTCTVSGGSISSSVYYWSWIRQPPGKGLEWIGSILVSGSTYYNPSLKSRVTISVDTSKNQFSLKLSSVTAADTAVYYCARAVSFLDVWGQGTMVIVSS
VL: DIQMTQSPSSLSASVGDRVTITCRASQSISSYLNWYQQKPGKAPKLLIYGASSLQSGVPSRFSGSGSGTDFTLTISSLQPEDFATYYCQQSYDPPWTFGGGTKVEIKR
notes: human IgG1/kappa

Positions count from the first letter of the chain named.

One assay addresses T1, human B7-H4 on the cell surface. The assay can be described thus: flow cytometry, 100 nM, transfected HEK293T.
Protocol: (§1) HEK293T cell lines were transfected to express full-length human, cynomolgus monkey, mouse, or rat B7-H4. In addition, the endogenous human B7-H4 expressing SK-BR-3 breast cancer cell line was used to assess the ability of the antibodies to bind B7-H4 expressed on the cell surface. 1×10⁵ parental HEK293T or transfected HEK293T cell lines were incubated with 100 nM of the B7-H4 antibodies. Following incubation, cells were pelleted, washed, and incubated with a secondary labeling antibody, and samples were acquired on a flow cytometer. Fold binding over the parental cell line (FOP) was calculated as follows: MFI transfected HKE293T cells/MFI parental HEK293T cells.
For B1, the “FOP (fold binding over the parental cell line)” value worked out at 580 fold.

For B2, the “FOP (fold binding over the parental cell line)” value was found to be 182 fold.

Regarding B3, the “FOP (fold binding over the parental cell line)” value is 200 fold.

Regarding B4, the “FOP (fold binding over the parental cell line)” value came to 205 fold.

As to B5, the “FOP (fold binding over the parental cell line)” value amounted to 333 fold.

B6: the “FOP (fold binding over the parental cell line)” value was determined as 179 fold.

In the next assay the target is T2, cynomolgus monkey B7-H4 on the cell …. The assay can be described thus: flow cytometry, 100 nM, transfected HEK293T.
Protocol: as §1
As for B1, the “FOP (fold binding over the parental cell line)” value stood at 1280 fold.

For the molecule B2, the “FOP (fold binding over the parental cell line)” value was determined as 630 fold.

As to B3, the “FOP (fold binding over the parental cell line)” value is 683 fold.

On to B4, for which the “FOP (fold binding over the parental cell line)” value worked out at 728 fold.

Consider B5, for which the “FOP (fold binding over the parental cell line)” value was 610 fold.

Consider B6, for which the “FOP (fold binding over the parental cell line)” value was determined as 758 fold.

For the next assay, the target named is T3, mouse B7-H4 on the cell surface. The assay can be described thus: flow cytometry, 100 nM, transfected HEK293T.
Protocol: as §1
Turning to B1, the “FOP (fold binding over the parental cell line)” value was 685 fold.

Regarding B2, the “FOP (fold binding over the parental cell line)” value came out at 478 fold.

For the molecule B3, the “FOP (fold binding over the parental cell line)” value is 559 fold.

With B4, the “FOP (fold binding over the parental cell line)” value came to 546 fold.

Regarding B5, the “FOP (fold binding over the parental cell line)” value is 887 fold.

Consider B6, for which the “FOP (fold binding over the parental cell line)” value amounted to 604 fold.

In the next assay the target is T1, human B7-H4 on the cell surface. The assay is described as follows: cell-based or functional assay.
Consider B5, for which the “Donor 1 Max IFNγ” value was determined as 312 pg/mL, the “Donor 2 Max IFNγ” value is 165 pg/mL, the “Donor 3 Max IFNγ” value amounted to 1960 pg/mL and the “Donor 4 Max IFNγ” value stood at 987 pg/mL. Also, the “aAPC Assay EC50 (IFNγ production)” value turned out to be 531 nM.

The next assay has the same target. The assay is described as follows: flow cytometry, SK-BR-3 cells.
Protocol: (§2) Following incubation, cells were pelleted, washed and incubated with a secondary labeling antibody and samples were acquired on a flow cytometer. Data was analyzed using the FlowJo software and MFI was plotted vs. antibody concentration. The EC50 cell binding potency was calculated using nonlinear regression curve fit (GraphPad Prism).
B1 returned an EC50 of 8.86 nM.

Turning to B2, a half-maximal effect (EC50) was put at 1.54 nM.

Regarding B3, the EC50 was 2.5 nM.

B4 returned an EC50 of 1.9 nM.

On to B5, for which the midpoint of the response, the EC50, lay at 5.66 nM.

Take B6: the EC50 is 7.6 nM.

A further assay concerns the target T2, cynomolgus monkey B7-H4 on the cell …. The assay can be described thus: flow cytometry, transfected 293 cells.
Protocol: as §2
Turning to B2, it took 3.38 nM to reach a half-maximal effect (EC50).

In turn, B3 had an EC50 of 4.94 nM.

With B4, the EC50 is 3.89 nM.

B5 gave an EC50 of 6.77 nM.

On to B6, for which it took 7.91 nM to reach a half-maximal effect (EC50).

In another assay the target is T3, mouse B7-H4 on the cell surface. The assay is described as follows: flow cytometry, transfected 293 cells.
Protocol: as §2
For B2, the concentration for a half-maximal effect (EC50) worked out at 4 nM.

B3 had an EC50 of 5.57 nM.

As to B4, the EC50 is 4.67 nM.

Regarding B5, the response was half-maximal at 6.37 nM (EC50).

B6 returned an EC50 of 6.7 nM.

For the next assay, the target named is T4, rat B7-H4 on the cell surface. The assay can be described thus: flow cytometry, transfected 293 cells.
Protocol: as §2
Molecule B2 had an EC50 of 1.14 nM.

As for B3, a half-maximal response (EC50) required 1.26 nM.

The molecule B4 showed a concentration giving a half-maximal response (EC50) of 1.15 nM.

Take B5: the half-maximal effective concentration (EC50) is 1.67 nM.

For a further assay, the target named is T7, B7-H4 IgV-huIgG1 (human).
T7 construct: also called N-terminal domain of human B7-H4
The assay is described as follows: SPR, antibody captured by anti-human Fab, antigen in flow.
Protocol: Briefly, anti-human Fab antibody was immobilized on a carboxyl-derivatized SPR chip surface, and anti-B7-H4 antibodies were captured on the resulting surface at 5 ug/ml for 30 seconds.
In the case of B5, the Kd is 30.4 nM, the koff stood at 0.00519 s⁻¹ and the kon turned out to be 171000 M⁻¹ s⁻¹.

The next assay has as its target T1, human B7-H4 on the cell surface. The assay can be described thus: cell-based or functional assay. The source holds these as a separate data set.
On to B2, for which the “Donor 1 Max IFNγ” value amounted to 821 pg/mL, the “Donor 2 Max IFNγ” value came out at 274 pg/mL, the “Donor 3 Max IFNγ” value turned out to be 118 pg/mL and the “Donor 4 Max IFNγ” value is 4030 pg/mL. For the same molecule, the “aAPC Assay EC50 (IFNγ production)” value is 0.84 nM.

With B3, the “Donor 1 Max IFNγ” value stood at 937 pg/mL, the “Donor 2 Max IFNγ” value amounted to 304 pg/mL, the “Donor 3 Max IFNγ” value came to 174 pg/mL and the “Donor 4 Max IFNγ” value amounted to 4270 pg/mL. Further, the “aAPC Assay EC50 (IFNγ production)” value worked out at 0.79 nM.

As to B4, the “Donor 1 Max IFNγ” value came out at 850 pg/mL, the “Donor 2 Max IFNγ” value was 310 pg/mL, the “Donor 3 Max IFNγ” value was 136 pg/mL and the “Donor 4 Max IFNγ” value was found to be 4490 pg/mL. Besides, the “aAPC Assay EC50 (IFNγ production)” value is 0.79 nM.

Consider B6, for which the “Donor 1 Max IFNγ” value amounted to 186 pg/mL.

The target in the next assay is T5, mouse B7-H4 (recombinant, BLI). The assay is described as follows: BLI, antigen on Protein A tips.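 Also: Anti-B7-H4 antibodies assessed for affinity toward the B7-H4 extracellular domain using biolayer interferometry.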
Protocol: (§3) Binding affinities of anti-B7-H4 antibodies to B7-H4-extracellular domain (ECD) were determined by biolayer interferometry (BLI). […] Anti-B7-H4 antibodies were then evaluated for binding.
With B1, the Kd was determined as 38 nM, the koff is 0.016 s⁻¹ and the kon was 422000 M⁻¹ s⁻¹.

With B2, the Kd was 8.25 nM, the koff was 0.00336 s⁻¹ and the kon was 408000 M⁻¹ s⁻¹.

As for B3, the Kd is 3.99 nM, the koff was determined as 0.00207 s⁻¹ and the kon is 520000 M⁻¹ s⁻¹.

In the case of B4, the Kd is 3.35 nM, the koff turned out to be 0.00375 s⁻¹ and the kon came to 1.12e+06 M⁻¹ s⁻¹.

In the case of B5, the Kd was 55.7 nM, the koff came to 0.017 s⁻¹ and the kon was found to be 305000 M⁻¹ s⁻¹.

Regarding B6, the dissociation constant Kd stood at 24.6 nM, the koff worked out at 0.0171 s⁻¹ and the kon came to 692000 M⁻¹ s⁻¹.

The target in the next assay is T8, recombinant human B7-H4-huIgG1 (human).
T8 construct: also called B7-H4-extracellular domain (ECD)
The assay is described as follows: BLI, antigen on Protein A tips.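 Also: Anti-B7-H4 antibodies assessed for affinity toward the B7-H4 extracellular domain using biolayer interferometry.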
Protocol: as §3
For B1, the Kd amounted to 7.11 nM, the koff was found to be 0.00497 s⁻¹ and the kon was 700000 M⁻¹ s⁻¹.

Turning to B2, the dissociation constant (Kd) was 5.97 nM, the koff came to 0.00233 s⁻¹ and the on-rate constant (kon) amounted to 391000 M⁻¹ s⁻¹.

For the molecule B3, the Kd came out at 3.07 nM, the koff stood at 0.0015 s⁻¹ and the kon was 487000 M⁻¹ s⁻¹.

Turning to B4, the equilibrium dissociation constant (Kd) amounted to 2.56 nM, the koff stood at 0.00251 s⁻¹ and the kon came to 980000 M⁻¹ s⁻¹.

B5: the Kd was 62.9 nM, the koff is 0.024 s⁻¹ and the kon worked out at 381000 M⁻¹ s⁻¹.

B6: the Kd turned out to be 0.805 nM, the koff was determined as 0.000555 s⁻¹ and the kon came out at 689000 M⁻¹ s⁻¹.

A further assay addresses T6, cynomolgus monkey B7-H4 (recombinant, …). The assay can be described thus: BLI, antigen on Protein A tips.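 Also: Anti-B7-H4 antibodies assessed for affinity toward the B7-H4 extracellular domain using biolayer interferometry.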
Protocol: as §3
On to B1, for which the Kd stood at 7.8 nM, the koff was determined as 0.00582 s⁻¹ and the kon was 746000 M⁻¹ s⁻¹.

Consider B2, for which the Kd is 5.47 nM, the koff amounted to 0.00229 s⁻¹ and the kon was determined as 418000 M⁻¹ s⁻¹.

As for B3, the Kd was 2.64 nM, the koff was 0.00139 s⁻¹ and the kon came out at 528000 M⁻¹ s⁻¹.

Consider B4, for which the Kd came out at 2.42 nM, the koff stood at 0.00246 s⁻¹ and the kon was determined as 1.02e+06 M⁻¹ s⁻¹.

B5: the Kd is 62.1 nM, the koff turned out to be 0.027 s⁻¹ and the kon was found to be 434000 M⁻¹ s⁻¹.

Regarding B6, the Kd was determined as 0.721 nM, the off-rate constant (koff) was found to be 0.000569 s⁻¹ and the kon is 790000 M⁻¹ s⁻¹.
